The data set concerns Escherichia coli TOP10. Briefly: shrunken log2 fold change of peptide-encoding DNA abundance (4.5 h post-induction vs induction); higher = less antimicrobial activity (less host growth inhibition). The following applies: time post-induction: 4.5 h; library: site-saturation at positions 5, 18, 19, 20.
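Further: peptides expressed intracellularly from a pBAD plasmid library in pooled LB shake-flask culture, induced with 0.3% L-arabinose, DNA abundance read by NGS, three biological replicates, DESeq2 with apeglm shrinkage.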

Turning to RRIRQRPPRLPRPRPRPAAIPRP, the “shrunken log2 fold change” value is 0.111. As to RRIRQRPPRLPRPRPRPDLTPRP, the “shrunken log2 fold change” value turned out to be 0.00424. Regarding RRIRWRPPRLPRPRPRPTRNPRP, the “shrunken log2 fold change” value is -0.0437. For the sequence RRIRTRPPRLPRPRPRPFSVPRP, the “shrunken log2 fold change” value amounted to 0.0234. As for RRIRRRPPRLPRPRPRPPVGPRP, the “shrunken log2 fold change” value was determined as 0.366. In the case of RRIRCRPPRLPRPRPRPVRVPRP it was 0.272. As to RRIRHRPPRLPRPRPRPNQGPRP, the “shrunken log2 fold change” value is -0.479. For the sequence RRIRFRPPRLPRPRPRPTAYPRP, the “shrunken log2 fold change” value is -0.243. As to RRIRERPPRLPRPRPRPYTMPRP, the “shrunken log2 fold change” value was -0.0431.

Consider RRIRSRPPRLPRPRPRPSWLPRP, for which the “shrunken log2 fold change” value was -0.101. As to RRIRNRPPRLPRPRPRPPQEPRP, the “shrunken log2 fold change” value is -0.0479. Consider RRIRYRPPRLPRPRPRPEYYPRP, for which the “shrunken log2 fold change” value was -0.0128.

Regarding RRIRNRPPRLPRPRPRPSAKPRP, the “shrunken log2 fold change” value is -0.0395. In the case of RRIRQRPPRLPRPRPRPSVFPRP it was -0.143; in that of RRIRSRPPRLPRPRPRPWWLPRP, 0.0261; in that of RRIRNRPPRLPRPRPRPRSIPRP, -0.288. Next, RRIRPRPPRLPRPRPRPVMWPRP: 0.385; RRIRKRPPRLPRPRPRPCTFPRP: 0.00111. For the sequence RRIRVRPPRLPRPRPRPMDKPRP, the “shrunken log2 fold change” value is -0.278. Regarding RRIRMRPPRLPRPRPRPLERPRP, the “shrunken log2 fold change” value amounted to 0.00972. Next, RRIRLRPPRLPRPRPRPHLEPRP: 0.0765; RRIRTRPPRLPRPRPRPCLAPRP: -0.307. Consider RRIRMRPPRLPRPRPRPKQIPRP, for which the “shrunken log2 fold change” value turned out to be 0.371.

For the sequence RRIRERPPRLPRPRPRPFIKPRP, the “shrunken log2 fold change” value is -0.16. In the case of RRIRARPPRLPRPRPRPALDPRP it was 0.756; in that of RRIRFRPPRLPRPRPRPSMEPRP, -0.202; in that of RRIRKRPPRLPRPRPRPGFHPRP, 0.206. In the case of RRIRMRPPRLPRPRPRPFTQPRP it was 0.215; in that of RRIRGRPPRLPRPRPRPSAEPRP, 2.33; in that of RRIRDRPPRLPRPRPRPNPFPRP, -0.343. On to RRIRPRPPRLPRPRPRPPGNPRP, for which the “shrunken log2 fold change” value is 0.105. As for RRIRHRPPRLPRPRPRPTSCPRP, the “shrunken log2 fold change” value is -0.125. Consider RRIRRRPPRLPRPRPRPPSIPRP, for which the “shrunken log2 fold change” value is -0.212. With RRIRVRPPRLPRPRPRPGHPPRP, the “shrunken log2 fold change” value is 0.146. Consider RRIRFRPPRLPRPRPRPSCTPRP, for which the “shrunken log2 fold change” value is -0.407. As to RRIRPRPPRLPRPRPRPGTHPRP, the “shrunken log2 fold change” value was -0.017.

On to RRIRFRPPRLPRPRPRPESNPRP, for which the “shrunken log2 fold change” value came out at 0.224.

For RRIRARPPRLPRPRPRPYWLPRP, the “shrunken log2 fold change” value is -0.148. Turning to RRIRQRPPRLPRPRPRPCGMPRP, the “shrunken log2 fold change” value is -0.199.

Take RRIRSRPPRLPRPRPRPQMGPRP: the “shrunken log2 fold change” value is -0.046. Next, RRIRIRPPRLPRPRPRPHRGPRP: -0.00841; RRIRYRPPRLPRPRPRPPSTPRP: -0.294.

In the case of RRIRLRPPRLPRPRPRPILTPRP, the “shrunken log2 fold change” value is -0.281. Next, RRIRDRPPRLPRPRPRPYPMPRP: -0.348. In the case of RRIRWRPPRLPRPRPRPPRDPRP it was 0.661. Next, RRIRDRPPRLPRPRPRPQPSPRP: 0.234.

For RRIRWRPPRLPRPRPRPGFQPRP, the “shrunken log2 fold change” value stood at 0.127.

For the sequence RRIRWRPPRLPRPRPRPFMHPRP, the “shrunken log2 fold change” value is -0.153.

Turning to RRIRSRPPRLPRPRPRPHATPRP, the “shrunken log2 fold change” value is 0.378.

Consider RRIRMRPPRLPRPRPRPHQDPRP, for which the “shrunken log2 fold change” value was -0.117.

On to RRIRRRPPRLPRPRPRPCPIPRP, for which the “shrunken log2 fold change” value is 0.0892. With RRIRHRPPRLPRPRPRPNWQPRP, the “shrunken log2 fold change” value was -0.0282.

As for RRIRFRPPRLPRPRPRPFGWPRP, the “shrunken log2 fold change” value worked out at 0.0193. Regarding RRIRIRPPRLPRPRPRPSYAPRP, the “shrunken log2 fold change” value was -0.0605. As for RRIRRRPPRLPRPRPRPCYEPRP, the “shrunken log2 fold change” value worked out at 0.107. For the sequence RRIRARPPRLPRPRPRPYWTPRP, the “shrunken log2 fold change” value is -0.16. In the case of RRIRTRPPRLPRPRPRPRPQPRP it was 0.146. Turning to RRIRGRPPRLPRPRPRPITKPRP, the “shrunken log2 fold change” value was -0.0602. In the case of RRIRLRPPRLPRPRPRPIGSPRP it was -0.0107. As to RRIRYRPPRLPRPRPRPAPPPRP, the “shrunken log2 fold change” value was determined as 0.417. With RRIRYRPPRLPRPRPRPYYVPRP, the “shrunken log2 fold change” value stood at 0.0372. In the case of RRIRFRPPRLPRPRPRPQHAPRP, the “shrunken log2 fold change” value is -0.202. RRIRHRPPRLPRPRPRPIYAPRP: the “shrunken log2 fold change” value was 0.0179. In the case of RRIRWRPPRLPRPRPRPPCDPRP, the “shrunken log2 fold change” value stood at 0.255. Take RRIRKRPPRLPRPRPRPCEIPRP: the “shrunken log2 fold change” value was determined as 0.128. In the case of RRIRKRPPRLPRPRPRPLVVPRP it was -0.0832. Turning to RRIRIRPPRLPRPRPRPDEHPRP, the “shrunken log2 fold change” value is -0.272.

For the sequence RRIRDRPPRLPRPRPRPKQVPRP, the “shrunken log2 fold change” value was -0.185. Turning to RRIRYRPPRLPRPRPRPVFVPRP, the “shrunken log2 fold change” value is -0.458. Next, RRIRGRPPRLPRPRPRPGFRPRP: 0.399; RRIRFRPPRLPRPRPRPDDVPRP: -0.0133. As to RRIRYRPPRLPRPRPRPPCYPRP, the “shrunken log2 fold change” value is -0.378.

As to RRIRDRPPRLPRPRPRPRIMPRP, the “shrunken log2 fold change” value was 0.015. Turning to RRIRARPPRLPRPRPRPIDPPRP, the “shrunken log2 fold change” value was 0.00727.

On to RRIRMRPPRLPRPRPRPRLLPRP, for which the “shrunken log2 fold change” value was 0.421. Consider RRIRFRPPRLPRPRPRPYILPRP, for which the “shrunken log2 fold change” value was -1.31. As to RRIRGRPPRLPRPRPRPYGDPRP, the “shrunken log2 fold change” value was -0.176. In the case of RRIRCRPPRLPRPRPRPQQVPRP, the “shrunken log2 fold change” value was -0.29. On to RRIRQRPPRLPRPRPRPKVWPRP, for which the “shrunken log2 fold change” value amounted to 0.153.

Take RRIRERPPRLPRPRPRPSLGPRP: the “shrunken log2 fold change” value was -0.143. Next, RRIRCRPPRLPRPRPRPYKPPRP: -0.705; RRIRERPPRLPRPRPRPGRGPRP: 0.436; RRIRCRPPRLPRPRPRPEGHPRP: 0.38. Next, RRIRTRPPRLPRPRPRPANDPRP: -0.116; RRIRERPPRLPRPRPRPVCIPRP: -0.541; RRIRNRPPRLPRPRPRPNFYPRP: -0.225. RRIRHRPPRLPRPRPRPAMNPRP: the “shrunken log2 fold change” value is -0.0974. As for RRIRQRPPRLPRPRPRPKQWPRP, the “shrunken log2 fold change” value turned out to be 0.293.

For RRIRSRPPRLPRPRPRPWLWPRP, the “shrunken log2 fold change” value turned out to be 1.45. As to RRIRIRPPRLPRPRPRPTWKPRP, the “shrunken log2 fold change” value is -0.0541. For the sequence RRIRMRPPRLPRPRPRPNVMPRP, the “shrunken log2 fold change” value was -0.108.

These data come from the supplement of paper PMC9112550, “Optimization of the antimicrobial peptide Bac7 by deep mutational scanning” (BMC Biology, 2022).
